In assay [1] the target is human glucagon-like peptide 1 receptor (GLP-1R) (human, UniProt P43220). As to the kind of experiment: cell-based or functional assay.
The target in assay [2] is human glucagon receptor (glucagon-R) (human, UniProt P47871). The assay is described as follows: cell-based or functional assay.

The values that follow come from patent publication US20130157929A1, “GLUCAGON ANALOGUES” (ZEALAND PHARMA A/S, published 2013).

Starred links: 1 amine or outer side, 2 acyl side, 3 side chain; linkers in the order of their positions; H or OH if unused. Non-standard residues stand in square brackets, D forms with d. Groups on a side chain read outwards from the residue. *: point of attachment. γGlu = O=C(O)[C@H](CCC(=O)[*:2])N[*:1]; Palmitoyl = CCCCCCCCCCCCCCCC(=O)*; hPhe = N[C@@H](CCc1ccccc1)C(=O)O; Aib = CC(C)(N)C(=O)O

B1: Compound 13 (peptide)
peptide: H-H[Aib]LGTFTSDYSKYLDSK([γGlu-Palmitoyl])AAHDFVEWLLSA-NH2
SMILES: CCCCCCCCCCCCCCCC(=O)N[C@@H](CCC(=O)NCCCC[C@H](NC(=O)[C@H](CO)NC(=O)[C@H](CC(=O)O)NC(=O)[C@H](CC(C)C)NC(=O)[C@H](Cc1ccc(O)cc1)NC(=O)[C@H](CCCCN)NC(=O)[C@H](CO)NC(=O)[C@H](Cc1ccc(O)cc1)NC(=O)[C@H](CC(=O)O)NC(=O)[C@H](CO)NC(=O)[C@@H](NC(=O)[C@H](Cc1ccccc1)NC(=O)[C@@H](NC(=O)CNC(=O)[C@H](CC(C)C)NC(=O)C(C)(C)NC(=O)[C@@H](N)Cc1c[nH]cn1)[C@@H](C)O)[C@@H](C)O)C(=O)N[C@@H](C)C(=O)N[C@@H](C)C(=O)N[C@@H](Cc1c[nH]cn1)C(=O)N[C@@H](CC(=O)O)C(=O)N[C@@H](Cc1ccccc1)C(=O)N[C@H](C(=O)N[C@@H](CCC(=O)O)C(=O)N[C@@H](Cc1c[nH]c2ccccc12)C(=O)N[C@@H](CC(C)C)C(=O)N[C@@H](CC(C)C)C(=O)N[C@@H](CO)C(=O)N[C@@H](C)C(N)=O)C(C)C)C(=O)O
For the molecule B1, the “EC50 (nM) GLP-1R, cAMP formation” value in assay [1] was found to be 0.28 nM. In addition, the “EC50 (nM) GluR, cAMP formation” value in assay [2] is 11 nM.

B2: Compound 11 (peptide)
peptide: H-H[Aib]Q[Aib]TFTSDYSKYLDSK([γGlu-Palmitoyl])AAHDFVEWLLSA-NH2
SMILES: CCCCCCCCCCCCCCCC(=O)N[C@@H](CCC(=O)NCCCC[C@H](NC(=O)[C@H](CO)NC(=O)[C@H](CC(=O)O)NC(=O)[C@H](CC(C)C)NC(=O)[C@H](Cc1ccc(O)cc1)NC(=O)[C@H](CCCCN)NC(=O)[C@H](CO)NC(=O)[C@H](Cc1ccc(O)cc1)NC(=O)[C@H](CC(=O)O)NC(=O)[C@H](CO)NC(=O)[C@@H](NC(=O)[C@H](Cc1ccccc1)NC(=O)[C@@H](NC(=O)C(C)(C)NC(=O)[C@H](CCC(N)=O)NC(=O)C(C)(C)NC(=O)[C@@H](N)Cc1c[nH]cn1)[C@@H](C)O)[C@@H](C)O)C(=O)N[C@@H](C)C(=O)N[C@@H](C)C(=O)N[C@@H](Cc1c[nH]cn1)C(=O)N[C@@H](CC(=O)O)C(=O)N[C@@H](Cc1ccccc1)C(=O)N[C@H](C(=O)N[C@@H](CCC(=O)O)C(=O)N[C@@H](Cc1c[nH]c2ccccc12)C(=O)N[C@@H](CC(C)C)C(=O)N[C@@H](CC(C)C)C(=O)N[C@@H](CO)C(=O)N[C@@H](C)C(N)=O)C(C)C)C(=O)O
Regarding B2, in assay [1], the “EC50 (nM) GLP-1R, cAMP formation” value was found to be 22 nM. In assay [2], the “EC50 (nM) GluR, cAMP formation” value came to 5.1 nM.

B3: Compound 14 (peptide)
peptide: H-H[Aib][hPhe]GTFTSDYSKYLDSK([γGlu-Palmitoyl])AAHDFVEWLLSA-NH2
SMILES: CCCCCCCCCCCCCCCC(=O)N[C@@H](CCC(=O)NCCCC[C@H](NC(=O)[C@H](CO)NC(=O)[C@H](CC(=O)O)NC(=O)[C@H](CC(C)C)NC(=O)[C@H](Cc1ccc(O)cc1)NC(=O)[C@H](CCCCN)NC(=O)[C@H](CO)NC(=O)[C@H](Cc1ccc(O)cc1)NC(=O)[C@H](CC(=O)O)NC(=O)[C@H](CO)NC(=O)[C@@H](NC(=O)[C@H](Cc1ccccc1)NC(=O)[C@@H](NC(=O)CNC(=O)[C@H](CCc1ccccc1)NC(=O)C(C)(C)NC(=O)[C@@H](N)Cc1c[nH]cn1)[C@@H](C)O)[C@@H](C)O)C(=O)N[C@@H](C)C(=O)N[C@@H](C)C(=O)N[C@@H](Cc1c[nH]cn1)C(=O)N[C@@H](CC(=O)O)C(=O)N[C@@H](Cc1ccccc1)C(=O)N[C@H](C(=O)N[C@@H](CCC(=O)O)C(=O)N[C@@H](Cc1c[nH]c2ccccc12)C(=O)N[C@@H](CC(C)C)C(=O)N[C@@H](CC(C)C)C(=O)N[C@@H](CO)C(=O)N[C@@H](C)C(N)=O)C(C)C)C(=O)O
For B3, the “EC50 (nM) GLP-1R, cAMP formation” value in assay [1] came out at 3.5 nM. The “EC50 (nM) GluR, cAMP formation” value in assay [2] amounted to 8.9 nM.

B4: Compound 15 (peptide)
peptide: H-H[Aib]WGTFTSDYSKYLDSK([γGlu-Palmitoyl])AAHDFVEWLLSA-NH2
SMILES: CCCCCCCCCCCCCCCC(=O)N[C@@H](CCC(=O)NCCCC[C@H](NC(=O)[C@H](CO)NC(=O)[C@H](CC(=O)O)NC(=O)[C@H](CC(C)C)NC(=O)[C@H](Cc1ccc(O)cc1)NC(=O)[C@H](CCCCN)NC(=O)[C@H](CO)NC(=O)[C@H](Cc1ccc(O)cc1)NC(=O)[C@H](CC(=O)O)NC(=O)[C@H](CO)NC(=O)[C@@H](NC(=O)[C@H](Cc1ccccc1)NC(=O)[C@@H](NC(=O)CNC(=O)[C@H](Cc1c[nH]c2ccccc12)NC(=O)C(C)(C)NC(=O)[C@@H](N)Cc1c[nH]cn1)[C@@H](C)O)[C@@H](C)O)C(=O)N[C@@H](C)C(=O)N[C@@H](C)C(=O)N[C@@H](Cc1c[nH]cn1)C(=O)N[C@@H](CC(=O)O)C(=O)N[C@@H](Cc1ccccc1)C(=O)N[C@H](C(=O)N[C@@H](CCC(=O)O)C(=O)N[C@@H](Cc1c[nH]c2ccccc12)C(=O)N[C@@H](CC(C)C)C(=O)N[C@@H](CC(C)C)C(=O)N[C@@H](CO)C(=O)N[C@@H](C)C(N)=O)C(C)C)C(=O)O
On to B4, for which the “EC50 (nM) GLP-1R, cAMP formation” value in assay [1] worked out at 5.8 nM. In addition, in assay [2], the “EC50 (nM) GluR, cAMP formation” value amounted to 43 nM.

B5: Compound 16 (peptide)
peptide: H-H[Aib]VGTFTSDYSKYLDSK([γGlu-Palmitoyl])AAHDFVEWLLSA-NH2
SMILES: CCCCCCCCCCCCCCCC(=O)N[C@@H](CCC(=O)NCCCC[C@H](NC(=O)[C@H](CO)NC(=O)[C@H](CC(=O)O)NC(=O)[C@H](CC(C)C)NC(=O)[C@H](Cc1ccc(O)cc1)NC(=O)[C@H](CCCCN)NC(=O)[C@H](CO)NC(=O)[C@H](Cc1ccc(O)cc1)NC(=O)[C@H](CC(=O)O)NC(=O)[C@H](CO)NC(=O)[C@@H](NC(=O)[C@H](Cc1ccccc1)NC(=O)[C@@H](NC(=O)CNC(=O)[C@@H](NC(=O)C(C)(C)NC(=O)[C@@H](N)Cc1c[nH]cn1)C(C)C)[C@@H](C)O)[C@@H](C)O)C(=O)N[C@@H](C)C(=O)N[C@@H](C)C(=O)N[C@@H](Cc1c[nH]cn1)C(=O)N[C@@H](CC(=O)O)C(=O)N[C@@H](Cc1ccccc1)C(=O)N[C@H](C(=O)N[C@@H](CCC(=O)O)C(=O)N[C@@H](Cc1c[nH]c2ccccc12)C(=O)N[C@@H](CC(C)C)C(=O)N[C@@H](CC(C)C)C(=O)N[C@@H](CO)C(=O)N[C@@H](C)C(N)=O)C(C)C)C(=O)O
B5: the “EC50 (nM) GLP-1R, cAMP formation” value in assay [1] stood at 0.13 nM. Also, the “EC50 (nM) GluR, cAMP formation” value in assay [2] was 3 nM.

B6: Compound 17 (peptide)
peptide: H-H[Aib]AGTFTSDYSKYLDSK([γGlu-Palmitoyl])AAHDFVEWLLSA-NH2
SMILES: CCCCCCCCCCCCCCCC(=O)N[C@@H](CCC(=O)NCCCC[C@H](NC(=O)[C@H](CO)NC(=O)[C@H](CC(=O)O)NC(=O)[C@H](CC(C)C)NC(=O)[C@H](Cc1ccc(O)cc1)NC(=O)[C@H](CCCCN)NC(=O)[C@H](CO)NC(=O)[C@H](Cc1ccc(O)cc1)NC(=O)[C@H](CC(=O)O)NC(=O)[C@H](CO)NC(=O)[C@@H](NC(=O)[C@H](Cc1ccccc1)NC(=O)[C@@H](NC(=O)CNC(=O)[C@H](C)NC(=O)C(C)(C)NC(=O)[C@@H](N)Cc1c[nH]cn1)[C@@H](C)O)[C@@H](C)O)C(=O)N[C@@H](C)C(=O)N[C@@H](C)C(=O)N[C@@H](Cc1c[nH]cn1)C(=O)N[C@@H](CC(=O)O)C(=O)N[C@@H](Cc1ccccc1)C(=O)N[C@H](C(=O)N[C@@H](CCC(=O)O)C(=O)N[C@@H](Cc1c[nH]c2ccccc12)C(=O)N[C@@H](CC(C)C)C(=O)N[C@@H](CC(C)C)C(=O)N[C@@H](CO)C(=O)N[C@@H](C)C(N)=O)C(C)C)C(=O)O
With B6, in assay [1], the “EC50 (nM) GLP-1R, cAMP formation” value was 0.09 nM. In addition, the “EC50 (nM) GluR, cAMP formation” value in assay [2] came out at 3.4 nM.

B7: Compound 10 (peptide)
peptide: H-H[Aib]QETFTSDYSKYLDSK([γGlu-Palmitoyl])AAHDFVEWLLSA-NH2
SMILES: CCCCCCCCCCCCCCCC(=O)N[C@@H](CCC(=O)NCCCC[C@H](NC(=O)[C@H](CO)NC(=O)[C@H](CC(=O)O)NC(=O)[C@H](CC(C)C)NC(=O)[C@H](Cc1ccc(O)cc1)NC(=O)[C@H](CCCCN)NC(=O)[C@H](CO)NC(=O)[C@H](Cc1ccc(O)cc1)NC(=O)[C@H](CC(=O)O)NC(=O)[C@H](CO)NC(=O)[C@@H](NC(=O)[C@H](Cc1ccccc1)NC(=O)[C@@H](NC(=O)[C@H](CCC(=O)O)NC(=O)[C@H](CCC(N)=O)NC(=O)C(C)(C)NC(=O)[C@@H](N)Cc1c[nH]cn1)[C@@H](C)O)[C@@H](C)O)C(=O)N[C@@H](C)C(=O)N[C@@H](C)C(=O)N[C@@H](Cc1c[nH]cn1)C(=O)N[C@@H](CC(=O)O)C(=O)N[C@@H](Cc1ccccc1)C(=O)N[C@H](C(=O)N[C@@H](CCC(=O)O)C(=O)N[C@@H](Cc1c[nH]c2ccccc12)C(=O)N[C@@H](CC(C)C)C(=O)N[C@@H](CC(C)C)C(=O)N[C@@H](CO)C(=O)N[C@@H](C)C(N)=O)C(C)C)C(=O)O
As for B7, the “EC50 (nM) GLP-1R, cAMP formation” value in assay [1] was determined as 20 nM. The “EC50 (nM) GluR, cAMP formation” value in assay [2] came out at 15 nM.

B8: Compound 12 (peptide)
peptide: H-H[Aib]QFTFTSDYSKYLDSK([γGlu-Palmitoyl])AAHDFVEWLLSA-NH2
SMILES: CCCCCCCCCCCCCCCC(=O)N[C@@H](CCC(=O)NCCCC[C@H](NC(=O)[C@H](CO)NC(=O)[C@H](CC(=O)O)NC(=O)[C@H](CC(C)C)NC(=O)[C@H](Cc1ccc(O)cc1)NC(=O)[C@H](CCCCN)NC(=O)[C@H](CO)NC(=O)[C@H](Cc1ccc(O)cc1)NC(=O)[C@H](CC(=O)O)NC(=O)[C@H](CO)NC(=O)[C@@H](NC(=O)[C@H](Cc1ccccc1)NC(=O)[C@@H](NC(=O)[C@H](Cc1ccccc1)NC(=O)[C@H](CCC(N)=O)NC(=O)C(C)(C)NC(=O)[C@@H](N)Cc1c[nH]cn1)[C@@H](C)O)[C@@H](C)O)C(=O)N[C@@H](C)C(=O)N[C@@H](C)C(=O)N[C@@H](Cc1c[nH]cn1)C(=O)N[C@@H](CC(=O)O)C(=O)N[C@@H](Cc1ccccc1)C(=O)N[C@H](C(=O)N[C@@H](CCC(=O)O)C(=O)N[C@@H](Cc1c[nH]c2ccccc12)C(=O)N[C@@H](CC(C)C)C(=O)N[C@@H](CC(C)C)C(=O)N[C@@H](CO)C(=O)N[C@@H](C)C(N)=O)C(C)C)C(=O)O
B8: the “EC50 (nM) GLP-1R, cAMP formation” value in assay [1] was 12 nM. Besides, in assay [2], the “EC50 (nM) GluR, cAMP formation” value worked out at 25 nM.
